Measured values published in US20260242478A1 (published 2026).
Where no end group is shown, it is not given here.

Tests used:
[1] = biological target: T1, Anti-PSMA Fab (SEQ ID NOs: 19, 20) (biotinylated (site not stated)); test: phage ELISA; biotinylated PSMA Fab on neutravidin plate, wells pre-incubated with PSMA antigen as competitor, anti-M13 HRP detection
T1 construct: also called 006 PSMA Fab

[2] = biological target: T1, Anti-PSMA Fab (SEQ ID NOs: 19, 20); test: phage ELISA; biotinylated PSMA Fab on neutravidin plate, clonal phage supernatant, anti-M13 HRP detection;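 note: wells preincubated with PSMA antigen in blocking buffer or with blocking buffer only before clonal phage were added for a short incubation, then bound phage detected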
Description: (§1) Clonal phage were harvested as crude supernatants and screened via standard ELISAs. […] Prior to the addition of clonal phage. wells were incubated with blocking buffer and PSMA antigen or blocking buffer alone. Without washing or aspirating, clonal phage supernatants were then added to the wells and incubated for a short time. Wells were then washed followed by detection of bound phage using a horse radish conjugated anti-M13 antibody.

[3] = biological target: T2, Anti-PSMA Fab (SEQ ID NOs: 19, 20); test: phage binding ELISA; clonal phage supernatant on biotinylated PSMA Fab captured on neutravidin plate, wells pre-incubated with PSMA antigen (competitor: PSMA); anti-M13-HRP detection
T2 construct: also called 006 PSMA Fab
Description: as §1

[4] = biological target: T2, Anti-PSMA Fab (SEQ ID NOs: 19, 20); test: phage binding ELISA; clonal phage supernatant on biotinylated PSMA Fab captured on neutravidin plate; anti-M13-HRP detection
Description: as §1

[5] = biological target: T3, Anti-PSMA Fab (SEQ ID NOs: 19, 20); test: phage binding ELISA; biotinylated PSMA Fab on neutravidin plate, clonal phage supernatant, anti-M13 HRP detection;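 note: wells were preincubated with blocking buffer either containing PSMA antigen or without it before crude phage supernatant was added, briefly incubated, then washed prior to detection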
T3 construct: Biotinylated and captured on neutravidin coated plates in the phage ELISA; also called 006 PSMA Fab
Description: as §1

[6] = biological target: T3, Anti-PSMA Fab (SEQ ID NOs: 19, 20); test: phage binding ELISA; PSMA Fab on plate pre-incubated with PSMA antigen as competitor, anti-M13 HRP detection;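 note: crude clonal phage supernatants added without washing to wells preincubated with PSMA in blocking buffer, compared with wells receiving blocking buffer only, then bound phage detected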
Description: as §1

[7] = biological target: T4, Anti-PSMA Fab (SEQ ID NOs: 19, 20); test: phage binding ELISA; biotinylated PSMA Fab captured on neutravidin plate, clonal phage supernatant, anti-M13 HRP detection
T4 construct: Biotinylated and captured on neutravidin coated plates in the phage ELISA; also called 006 PSMA Fab
Description: as §1

[8] = biological target: T4, Anti-PSMA Fab (SEQ ID NOs: 19, 20); test: phage binding ELISA on captured PSMA Fab; wells pre-incubated with PSMA antigen as competitor
Description: as §1

Row | Binder | Anti-PSMA Fab signal in the presence of PSMA [3] | Anti-PSMA Fab (SEQ ID NOs: 19, 20) signal [4] | Phage binding ELISA, Anti-PSMA Fab (SEQ ID NOs: 19, 20) signal [5] | Phage binding ELISA, Anti-PSMA Fab signal in the presence of PSMA [6] | other results
1 | VQNWCIPAWMCQGM (Clonal phage of the Peptide-180 library, tested as crude supernatant; not shown: fused to the pIII filament protein of the bacteriophage) [Phage-1930] |  |  |  |  | Phage binding ELISA, Anti-PSMA Fab signal in the presence of PSMA [1]: 0.0574; Phage binding ELISA, Anti-PSMA Fab (SEQ ID NOs: 19, 20) signal [2]: 1.98
2 | WDRLCTPAWMCTGF (Clonal phage of the Peptide-180 library, tested as crude supernatant; not shown: fused to the pIII filament protein of the bacteriophage) [Phage-1931] |  |  |  |  | Phage binding ELISA, Anti-PSMA Fab signal in the presence of PSMA [1]: 0.104; Phage binding ELISA, Anti-PSMA Fab (SEQ ID NOs: 19, 20) signal [2]: 1.97
3 | DFKWCTPMWMCEHL (Clonal phage of the Peptide-180 library, tested as crude supernatant; not shown: fused to the pIII filament protein of the bacteriophage) [Phage-1932] |  |  |  |  | Phage binding ELISA, Anti-PSMA Fab signal in the presence of PSMA [1]: 0.106; Phage binding ELISA, Anti-PSMA Fab (SEQ ID NOs: 19, 20) signal [2]: 1.97
4 | VVQWCIPAWMCAAQ (cysteine pairing not given here; also: displayed as fusion to phage pIII, Clonal phage of the Peptide-180 library, tested as crude supernatant; not shown: fused to the pIII filament protein of the bacteriophage) [Phage-1933] |  |  |  |  | Phage binding ELISA, Anti-PSMA Fab signal in the presence of PSMA [1]: 0.0955; Phage binding ELISA, Anti-PSMA Fab (SEQ ID NOs: 19, 20) signal [2]: 1.97
5 | VSIWCRPAWMCESG (Clonal phage of the Peptide-180 library, tested as crude supernatant; not shown: fused to the pIII filament protein of the bacteriophage) [Phage-1934] |  |  |  |  | Phage binding ELISA, Anti-PSMA Fab signal in the presence of PSMA [1]: 0.0809; Phage binding ELISA, Anti-PSMA Fab (SEQ ID NOs: 19, 20) signal [2]: 1.97
6 | VEKLCKPIWMCNWQ (Clonal phage of the Peptide-180 library, tested as crude supernatant; not shown: fused to the pIII filament protein of the bacteriophage) [Phage-1935] |  |  |  |  | Phage binding ELISA, Anti-PSMA Fab signal in the presence of PSMA [1]: 0.0992; Phage binding ELISA, Anti-PSMA Fab (SEQ ID NOs: 19, 20) signal [2]: 1.96
7 | WPKWCTPPWMCFQD [Phage-1936] | 0.148 | 1.96 |  |  | 
8 | FPKWCTPAWMCERS [Phage-1937] | 0.0909 | 1.96 |  |  | 
9 | MEKWCIPSWMCDVN [Phage-1938] | 0.0785 | 1.96 |  |  | 
10 | VEKLCRPSWMCEHM [Phage-1939] | 0.0564 | 1.96 |  |  | 
11 | WENWCRPEWMCTGL [Phage-1940] | 0.0907 | 1.95 |  |  | 
12 | GEKWCIPEWMCTTW [Phage-1941] | 0.135 | 1.95 |  |  | 
13 | VEKWCVPQWMCGQM [Phage-1942] | 0.0869 | 1.95 |  |  | 
14 | LEKWCIPTWMCELF [Phage-1943] | 0.175 | 1.94 |  |  | 
15 | DGKWCIPPWMCQST [Phage-1944] | 0.077 | 1.94 |  |  | 
16 | WENWCTPRWMCEGF [Phage-1945] | 0.173 | 1.94 |  |  | 
17 | TEMWCKPSWMCYGF [Phage-1946] | 0.101 | 1.94 |  |  | 
18 | WINWCTPEWMCMGF [Phage-1947] | 0.24 | 1.94 |  |  | 
19 | MDNWCTPSWMCVGF [Phage-1948] | 0.0794 | 1.93 |  |  | 
20 | DIKLCMPEWMCLGF [Phage-1949] | 0.0792 | 1.93 |  |  | 
21 | ARRSCVFRRGCVFM [Phage-1950] | 0.0701 | 1.93 |  |  | 

Row | Binder | Anti-PSMA Fab signal in the presence of PSMA [3] | Anti-PSMA Fab (SEQ ID NOs: 19, 20) signal [4] | Phage binding ELISA, Anti-PSMA Fab (SEQ ID NOs: 19, 20) signal [5] | Phage binding ELISA, Anti-PSMA Fab signal in the presence of PSMA [6] | other results
22 | AEHWCIPSWMCAGF (cysteine pairing not given here; also: displayed as fusion to phage pIII) [Phage-1951] |  |  | 1.93 | 0.104 | 
23 | MPKWCTPAWMCAHQ (cysteine pairing not given here; also: displayed as fusion to phage pIII) [Phage-1952] |  |  | 1.93 | 0.0835 | 
24 | PVKWCIPTWMCAPV (cysteine pairing not given here; also: fused to phage pIII (clonal phage display)) [Phage-1953] |  |  | 1.92 | 0.0978 | 
25 | HEKWCIPEWMCVVT [Phage-1954] |  |  | 1.92 | 0.0642 | 
26 | GEIWCIPPWMCYAP [Phage-1955] |  |  | 1.92 | 0.0825 | 
27 | FAKWCTPVWMCAGL (cysteine pairing not given here; also: displayed as fusion to phage pIII) [Phage-1956] |  |  | 1.92 | 0.281 | 
28 | LENWCIPAWMCSGF [Phage-1957] |  |  | 1.92 | 0.0656 | 
29 | DGKWCIPAWMCVDM [Phage-1958] |  |  | 1.92 | 0.0672 | 
30 | WDKWCIPEWMCESM [Phage-1959] |  |  | 1.92 | 0.0718 | 
31 | FEKWCIPDWMCQVM [Phage-1960] |  |  | 1.91 | 0.0817 | 
32 | EGIWCTPAWMCMGF [Phage-1961] |  |  | 1.91 | 0.0798 | 
33 | VVKWCLPPWMCTDF [Phage-1962] |  |  | 1.91 | 0.0829 | 
34 | LVKWCTPAWMCEFI [Phage-1963] |  |  | 1.91 | 0.0856 | 
35 | LEMWCVPAWMCSGF [Phage-1964] |  |  | 1.91 | 0.0771 | 
36 | MVKWCKPAWMCDVI [Phage-1965] |  |  | 1.91 | 0.078 | 
37 | WDKWCRPAWMCEST (tested as crude clonal phage supernatant) [Phage-1966] |  |  |  |  | Anti-PSMA Fab (SEQ ID NOs: 19, 20) signal [7]: 1.91; Anti-PSMA Fab signal in the presence of PSMA [8]: 0.0851
38 | DVKMCIPAWMCSFD (tested as crude clonal phage supernatant) [Phage-1967] |  |  |  |  | Anti-PSMA Fab (SEQ ID NOs: 19, 20) signal [7]: 1.91; Anti-PSMA Fab signal in the presence of PSMA [8]: 0.0712
39 | YIKWCTPSWMCEAS (tested as crude clonal phage supernatant) [Phage-1968] |  |  |  |  | Anti-PSMA Fab (SEQ ID NOs: 19, 20) signal [7]: 1.9; Anti-PSMA Fab signal in the presence of PSMA [8]: 0.113
40 | VEKWCKPTWMCEMV (tested as crude clonal phage supernatant) [Phage-1969] |  |  |  |  | Anti-PSMA Fab (SEQ ID NOs: 19, 20) signal [7]: 1.9; Anti-PSMA Fab signal in the presence of PSMA [8]: 0.0976
41 | EFKWCTPSWMCAHL (tested as crude clonal phage supernatant) [Phage-1970] |  |  |  |  | Anti-PSMA Fab (SEQ ID NOs: 19, 20) signal [7]: 1.9; Anti-PSMA Fab signal in the presence of PSMA [8]: 0.128
